Laboratory results reported in article PMC4428900.
Where two headings read alike, the source gives them in different places.

Legend:
[1] = molecular target: NS4B (genotype 2a) fused to mCherry (Hepatitis C virus genotype 2a) (UniProt Q99IB8); assay: FRET or BRET
[2] = molecular target: NS4B (genotype 2a) fused to mCherry (Hepatitis C virus genotype 2a) (UniProt Q99IB8); assay: FRET or BRET; remark: listed apart in the source
[3] = molecular target: NS4B (genotype 2a) W204A fused to mCherry (Hepatitis C virus genotype 2a); assay: FRET or BRET
[4] = molecular target: NS4B (genotype 1b) fused to mCherry (Hepatitis C virus genotype 1b) (UniProt Q9WMX2); assay: FRET or BRET
[5] = molecular target: NS4B (genotype 1b) fused to GFP (Hepatitis C virus genotype 1b) (UniProt Q9WMX2); assay: FRET or BRET
[6] = molecular target: pBIND-NS4B C-terminal domain W204A (Hepatitis C virus genotype 2a); assay: two-hybrid

For “NS5A (genotype 2a) a.a. 1–352 fused to GFP (domain or fragment)”, the mean FRET efficiency (Ef) [1] was 9.3.

Work on “NS5A (genotype 2a) fused to GFP (from UniProt Q99IB8 1977-2442) (natural protein)” yielded a mean FRET efficiency (Ef) [2] of 6.5, a mean FRET efficiency (Ef) [3] of 1.3 and a mean FRET efficiency (EF) [4] of 6.5. The mean FRET efficiency (EF) [1] was 5.5 and the mean FRET efficiency (Ef) [1] was 9.6.

With “NS5A (genotype 1b) fused to mCherry (from UniProt Q9WMX2 1973-2419) (natural protein)” the mean FRET efficiency (EF) [5] was 6.

With “pACT-NS5A (full length NS5A of genotype 2a fused to VP16) (from UniProt Q99IB8 1977-2442) (natural protein)” the reduction in luciferase activity compared to the wild type [6] was 30%.

“NS4B (genotype 1b) fused to GFP (from UniProt Q9WMX2 1712-1972) (natural protein)” gave a mean FRET efficiency (EF) [4] of 6.6.
